These results are taken from EP4700040A1, “PEPTIDE AND LUMINESCENT COMPLEX CONTAINING SAME” (Shenzhen Loggene Life Science & Technology Co., Ltd., priority 2023, dated 2024).

Assay [1] addresses Large subunit-rSCFV5 fusion protein. Nature of the assay: cell-based or functional assay.
The target is the same in assay [2]. Nature of the assay: cell-based or functional assay. The source holds these as a separate data set.

Large subunit-rSCFV5 fusion protein, sequence (chain, as listed by the source): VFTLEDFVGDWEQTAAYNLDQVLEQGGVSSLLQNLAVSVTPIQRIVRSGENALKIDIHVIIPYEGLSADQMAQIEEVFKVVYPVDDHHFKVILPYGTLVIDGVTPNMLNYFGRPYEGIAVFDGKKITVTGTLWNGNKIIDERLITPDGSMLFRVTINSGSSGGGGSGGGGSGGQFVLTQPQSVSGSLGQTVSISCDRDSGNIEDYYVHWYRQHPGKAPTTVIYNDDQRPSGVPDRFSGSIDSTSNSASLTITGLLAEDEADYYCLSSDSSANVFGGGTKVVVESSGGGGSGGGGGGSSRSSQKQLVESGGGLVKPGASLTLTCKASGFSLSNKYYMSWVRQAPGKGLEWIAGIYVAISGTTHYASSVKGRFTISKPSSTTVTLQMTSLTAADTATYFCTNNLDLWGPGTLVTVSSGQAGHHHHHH

For the molecule VEGYRLFNKEW (peptide, part only; not given: rSCFV18 scFv part, part only) [rSCFV18-small subunit mutant fusion protein RB284], in assay [1], the RLU, PCT+ was 3990 RLU; the RLU, PCT- was 302 RLU; the Signal-to-noise ratio is 12.2. Further, in assay [2], the Signal-to-noise ratio at 1000 pg/ml turned out to be 4.9, the normalised luminescence at PCT 0 pg/ml amounted to 5000, the normalised luminescence at PCT 1.1 pg/ml is 5090 and the normalised luminescence at PCT 3.3 pg/ml came out at 5290. In assay [2], this molecule yielded a normalised luminescence at PCT 10 pg/ml of 5530, a normalised luminescence at PCT 100 pg/ml of 7040, a normalised luminescence at PCT 1000 pg/ml of 24700 and a normalised luminescence at PCT 10000 pg/ml of 188000. The molecule further had a normalised luminescence at PCT 100000 pg/ml in assay [2] of 862000.
As for VDGWRLHEKIS (peptide, part only; not given: rSCFV18 scFv part, part only) [rSCFV18-small subunit mutant fusion protein RA141], in assay [1], the RLU, PCT+ came to 30600 RLU; the RLU, PCT- was 463 RLU; the Signal-to-noise ratio stood at 65.1. Further, in assay [2], the Signal-to-noise ratio at 1000 pg/ml was found to be 8.6, the normalised luminescence at PCT 0 pg/ml came to 5000, the normalised luminescence at PCT 1.1 pg/ml amounted to 4930 and the normalised luminescence at PCT 3.3 pg/ml stood at 5410. Further, in assay [2], the normalised luminescence at PCT 10 pg/ml was 6020, the normalised luminescence at PCT 100 pg/ml was 8680, the normalised luminescence at PCT 1000 pg/ml was found to be 42800 and the normalised luminescence at PCT 10000 pg/ml is 333000. The molecule further showed a normalised luminescence at PCT 100000 pg/ml in assay [2] of 1.4e+06.
